The values that follow come from publication PMC3863775.

What all share (assay): cryo-EM structure; single-particle cryoEM of the icosahedral head of purified BPP-1 virions, frozen hydrated; 50 mM Tris-HCl, 250 mM NaCl, 1 mM MgCl2, pH7.5; ~3.5 Å (capsid), ~3.4 Å (averaged CP and MCP)
The target in experiment [1] is major capsid protein (MCP) Bbp17 of bacteriophage BPP-1 (Bordetella bacteriophage BPP-1).
Experiment [2] has the same target. The source holds these as a separate data set.
Experiment [3] concerns the target cement protein (CP) Bbp16 of bacteriophage BPP-1 (Bordetella bacteriophage BPP-1).

Where two headings read alike, the source gives them in different places.

One may read the stoichiometry N as a count of units in the complex or per binding partner. As for “major capsid protein (MCP) Bbp17 of bacteriophage BPP-1 (natural protein)”, the stoichiometry N in experiment [1] was 6; in experiment [2], 5.
“cement protein (CP) Bbp16 of bacteriophage BPP-1 (natural protein)”: the stoichiometry N in experiment [3] came out at 2.
